Laboratory results taken from publication PMC7473840 (2018).
No end group written: not given here.

Molecular target: FMRP (Homo sapiens, UniProt Q06787)

Binder | Kd
TSCPKIPSSPDLKKS (also: phosphoserine pS440 plus a second phosphosite, positions not given here) | 0.42 µM
TSCPKIPSSPDLKKS (also: phosphoserine pS440, position in chain not given here) | 33.9 µM
